Experimental data reported in US20200171163A1 (Daiichi Sankyo, published 2020).
Where a chain is given by its changes, count along the chain named. Values belong to the binder of their own block, whether it stands above or below them.

Tests used:
[1] = target: T1, human CDH6 (full-length, on cells) (human, UniProt P55285 54-790); assay: flow cytometry; 293α cells transfected with full-length hCDH6 (open) vs untransfected control cells (shaded); APC anti-human IgG
T1 construct: also called hCDH6; full-length hCDH6
T1 sequence: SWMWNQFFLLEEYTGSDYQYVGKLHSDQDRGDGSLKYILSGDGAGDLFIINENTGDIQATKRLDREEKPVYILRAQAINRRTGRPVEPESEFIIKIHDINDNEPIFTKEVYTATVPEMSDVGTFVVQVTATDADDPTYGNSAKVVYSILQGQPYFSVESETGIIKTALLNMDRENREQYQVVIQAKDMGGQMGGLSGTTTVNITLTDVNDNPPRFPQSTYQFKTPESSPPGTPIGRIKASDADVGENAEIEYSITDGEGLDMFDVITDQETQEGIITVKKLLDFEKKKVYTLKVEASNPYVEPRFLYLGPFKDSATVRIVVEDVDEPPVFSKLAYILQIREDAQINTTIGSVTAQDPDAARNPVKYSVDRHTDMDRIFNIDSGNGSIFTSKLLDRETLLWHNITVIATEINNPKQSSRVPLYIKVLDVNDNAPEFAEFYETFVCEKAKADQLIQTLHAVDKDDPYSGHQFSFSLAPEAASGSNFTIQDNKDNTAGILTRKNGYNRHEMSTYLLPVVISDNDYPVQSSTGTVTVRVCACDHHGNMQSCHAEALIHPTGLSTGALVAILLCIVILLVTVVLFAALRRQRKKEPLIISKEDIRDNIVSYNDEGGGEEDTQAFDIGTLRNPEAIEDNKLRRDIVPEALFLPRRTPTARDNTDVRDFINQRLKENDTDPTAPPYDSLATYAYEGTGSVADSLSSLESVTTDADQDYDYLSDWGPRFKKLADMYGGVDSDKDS
Experimental: The cells were cultured overnight under conditions of 37° C. and 5% CO₂, and thereafter, a cell suspension was prepared. […] Thereafter, the cells were suspended by the addition of each of the 4 humanized hG019 antibodies (clone Nos: H01L02, H02L02, H02L03 and H04L02), which had been prepared in Example 5)-5-3, or the anti-CDH6 antibody NOV0712, which had been prepared in Reference Example 1, or human IgG1 (Calbiochem) as a negative control. The cells were left standing at 4° C. for 1 hour. The cells were washed twice with PBS supplemented with 5% FBS, and then suspended by the addition of APC-anti-human IgG goat F(ab′)2 (Jackson ImmunoResearch Laboratories, Inc.) that had been 500-fold diluted with PBS supplemented with 5% FBS. The cells were left standing at 4° C. for 1 hour. The cells were washed twice with PBS supplemented with 5% FBS, followed by detection using a flow cytometer (Canto II; BD Biosciences). The data was analyzed using FlowJo (Tree Star, Inc.). In the histograms of FIGS. 7-1 to 7-6, the abscissa depicts APC fluorescence intensity indicating the amount of the antibody bound, and the ordinate depicts cell count. […] Fluorescence intensity is enhanced when the antibody binds to full-length hCDH6 or each EC domain deletion mutant on cell surface. The human IgG1 control binds to none of the transfected cells.

[2] = target: T2, EC5 deletion mutant of human CDH6 (human, UniProt P55285 54-790); assay: flow cytometry; 293α cells transfected with EC5-deleted hCDH6 (open) vs untransfected control cells (shaded); APC anti-human IgG
T2 construct: In p3×FLAG-CMV-9; also called EC5-deleted hCDH6
T2 sequence: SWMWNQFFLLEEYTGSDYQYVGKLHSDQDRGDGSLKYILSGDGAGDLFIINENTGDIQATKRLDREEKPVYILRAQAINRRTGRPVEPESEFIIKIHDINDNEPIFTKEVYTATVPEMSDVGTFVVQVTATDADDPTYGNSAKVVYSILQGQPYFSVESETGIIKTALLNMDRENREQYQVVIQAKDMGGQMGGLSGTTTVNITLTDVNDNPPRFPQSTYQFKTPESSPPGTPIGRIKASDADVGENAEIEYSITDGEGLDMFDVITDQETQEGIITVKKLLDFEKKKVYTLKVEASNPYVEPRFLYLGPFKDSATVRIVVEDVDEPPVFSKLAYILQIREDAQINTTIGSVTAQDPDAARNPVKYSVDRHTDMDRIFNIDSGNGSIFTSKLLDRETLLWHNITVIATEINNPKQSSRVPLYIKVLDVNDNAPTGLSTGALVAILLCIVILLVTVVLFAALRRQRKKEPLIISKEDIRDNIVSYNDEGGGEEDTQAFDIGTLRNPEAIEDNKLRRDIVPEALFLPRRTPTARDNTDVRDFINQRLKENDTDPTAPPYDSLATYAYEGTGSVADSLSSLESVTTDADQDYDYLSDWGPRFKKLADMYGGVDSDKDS
Experimental: Thereafter, the cells were suspended by the addition of each of the 4 humanized hG019 antibodies (clone Nos: H01L02, H02L02, H02L03 and H04L02), which had been prepared in Example 5)-5-3, or the anti-CDH6 antibody NOV0712, which had been prepared in Reference Example 1, or human IgG1 (Calbiochem) as a negative control. The cells were left standing at 4° C. for 1 hour. The cells were washed twice with PBS supplemented with 5% FBS, and then suspended by the addition of APC-anti-human IgG goat F(ab′)2 (Jackson ImmunoResearch Laboratories, Inc.) that had been 500-fold diluted with PBS supplemented with 5% FBS. The cells were left standing at 4° C. for 1 hour. The cells were washed twice with PBS supplemented with 5% FBS, followed by detection using a flow cytometer (Canto II; BD Biosciences). The data was analyzed using FlowJo (Tree Star, Inc.). In the histograms of FIGS. 7-1 to 7-6, the abscissa depicts APC fluorescence intensity indicating the amount of the antibody bound, and the ordinate depicts cell count. […] Fluorescence intensity is enhanced when the antibody binds to full-length hCDH6 or each EC domain deletion mutant on cell surface. The human IgG1 control binds to none of the transfected cells.

[3] = target: T1, human CDH6 (full-length, on cells); assay: flow cytometry, MFI vs antibody concentration; 293α cells transfected with pcDNA3.1-hCDH6; PE anti-human IgG Fcγ
Experimental: (§1) The CDH6-binding activity of the human chimeric anti-CDH6 antibody chG019 purified in 4)-2 was confirmed by flow cytometry. […] The cells were cultured overnight under conditions of 37° C. and 5% CO₂, and thereafter, a cell suspension was prepared. chG019 was added to the suspension of each of these cells. The cells were left standing at 4° C. for 1 hour. Thereafter, the cells were washed twice with PBS supplemented with 5% FBS, and then suspended by the addition of PE-labeled F(ab′)2 Fragment anti-human IgG, Fcγ antibody (Jackson ImmunoResearch Laboratories, Inc.) that had been 500-fold diluted with PBS supplemented with 5% FBS. The cells were left standing at 4° C. for 1 hour. The cells were washed twice with PBS supplemented with 5% FBS, and then re-suspended in PBS supplemented with 5% FBS, followed by detection using a flow cytometer (Canto II; BD Biosciences). The data was analyzed using FlowJo (Tree Star, Inc.). […] In FIG. 5, the abscissa depicts antibody concentration, and the ordinate depicts the amount of the antibody bound, based on mean fluorescence intensity.

[4] = target: T3, cynomolgus monkey CDH6 (on cells) (cynomolgus monkey, UniProt P55285 54-790 (human entry)); assay: flow cytometry, MFI vs antibody concentration; 293α cells transfected with pcDNA3.1-cynoCDH6; PE anti-human IgG Fcγ
T3 construct: Expressed from pcDNA3.1-cynoCDH6; also called cynoCDH6
T3 sequence: T1 sequence with Y300H, H457R, A707G
Experimental: as §1

binding result [1]: binds
B1: anti-CDH6 antibody NOV0712 (antibody, V domains shown)
VH: QVQLLESGGGLVQPGGSLRLSCAASGFTFSSHGMHWVRQAPGKGLEWVSVISGSGSNTGYADSVKGRFTISRDNSKNTLYLQMNSLRAEDTAVYYCARQWGSYAFDSWGQGTLVTVSS
VL: DIQMTQSPSSLSASVGDRVTITCRASQSISSYLNWYQQKPGKAPKLLIYAVSTLQSGVPSRFSGSGSGTDFTLTISSLQPEDFATYYCQQSGTFPPTTFGQGTKVEIKR
notes: also called NOV0712 antibody; labeled NOV0712
binding result [2]: no binding (tested: not given (single concentration))

EC50 (read off the curve) [3]: ~0.01 µg/mL | EC50 (read off the curve) [4]: ~0.01 µg/mL
B2: human chimeric anti-CDH6 antibody chG019 (antibody, human IgG1)
heavy: not shown
light: DIQMTQSPSLLSASVGDRVTLNCKASQNIYKNLAWYQQKLGEGPKLLIYDANTLQTGIPSRFSGSGSGSDFTLTISSLQPEDVATYFCQQYYSGWAFGGVTNLELKRAVAAPSVFIFPPSDEQLKSGTASVVCLLNNFYPREAKVQWKVDNALQSGNSQESVTEQDSKDSTYSLSSTLTLSKADYEKHKVYACEVTHQGLSSPVTKSFNRGEC
notes: Human IgG1/kappa chimera; also called chG019 antibody; chimeric G019 antibody
